Tests used:
Experiment in all cases: MST; 50 mM Na2HPO4.12H2O, 150 mM NaCl, 0.005% Tween; pH not stated; room temperature; 80 nM DNA; protein from 1-4 mM (highest) downward
WT1 ZF2-4 p.Cys433Tyr = WT1 ZF2-4 p.Cys433Tyr (Homo sapiens (cDNA from A549 cells), UniProt P19544-2 334-423, C343Y); conditions: protein: recombinant; tags: no tag stated; label: 5' Cyanine5; single strand
WT1 ZF2-4 p.Gln447Pro = WT1 ZF2-4 p.Gln447Pro (Homo sapiens (cDNA from A549 cells), UniProt P19544-2 334-423, Q357P); conditions: protein: recombinant; tags: no tag stated; label: 5' Cyanine5; single strand
WT1 ZF2-4 p.Asp469Asn = WT1 ZF2-4 p.Asp469Asn (Homo sapiens (cDNA from A549 cells), UniProt P19544-2 334-423, D379N); conditions: protein: recombinant; tags: no tag stated; label: 5' Cyanine5; single strand
WT1 ZF2-4 p.His474Arg = WT1 ZF2-4 p.His474Arg (Homo sapiens (cDNA from A549 cells), UniProt P19544-2 334-423, H384R); conditions: protein: recombinant; tags: no tag stated; label: 5' Cyanine5; single strand
WT1 ZF2-4 p.Arg439Pro = WT1 ZF2-4 p.Arg439Pro (Homo sapiens (cDNA from A549 cells), UniProt P19544-2 334-423, R349P); conditions: protein: recombinant; tags: no tag stated; label: 5' Cyanine5; single strand
WT1 ZF2-4 p.Arg467Trp = WT1 ZF2-4 p.Arg467Trp (Homo sapiens (cDNA from A549 cells), UniProt P19544-2 334-423, R377W); conditions: protein: recombinant; tags: no tag stated; label: 5' Cyanine5; single strand
WT1 ZF2-4 p.Arg463Ter = WT1 ZF2-4 p.Arg463Ter (Homo sapiens (cDNA from A549 cells), UniProt P19544-2 334-372); conditions: protein: recombinant; tags: no tag stated; label: 5' Cyanine5; single strand
[1] = molecular target: WT1 ZF2-4 wild type (-KTS) (Homo sapiens (cDNA from A549 cells), UniProt P19544-2 334-423); conditions: protein: recombinant; tags: no tag stated; pET22b, reverse primer has a stop codon; label: 5' Cyanine5; single strand
WT1 ZF2-4 p.His450Arg = WT1 ZF2-4 p.His450Arg (Homo sapiens (cDNA from A549 cells), UniProt P19544-2 334-423, H360R); conditions: protein: recombinant; tags: no tag stated; label: 5' Cyanine5; single strand
WT1 ZF2-4 p.His450Arg, sequence (P19544 other isoform, or with tags, fused parts or gaps H360R | p.H450R p.H450R): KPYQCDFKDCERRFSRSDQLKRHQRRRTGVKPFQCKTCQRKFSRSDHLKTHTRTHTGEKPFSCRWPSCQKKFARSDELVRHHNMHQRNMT

WT1 ZF2-4 p.Asp469Asn, sequence (P19544 other isoform, or with tags, fused parts or gaps D379N | p.D469N p.D469N): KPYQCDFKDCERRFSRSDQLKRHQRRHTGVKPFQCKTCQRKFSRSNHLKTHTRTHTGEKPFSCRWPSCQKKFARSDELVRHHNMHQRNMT
WT1 ZF2-4 p.Arg463Ter, sequence (P19544 351-389): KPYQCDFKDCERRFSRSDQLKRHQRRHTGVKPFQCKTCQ
WT1 ZF2-4 p.Arg467Trp, sequence (P19544 other isoform, or with tags, fused parts or gaps R377W | p.R467W p.R467W): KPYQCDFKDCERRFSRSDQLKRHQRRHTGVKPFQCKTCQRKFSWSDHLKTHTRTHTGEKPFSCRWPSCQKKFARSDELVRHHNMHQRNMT
WT1 ZF2-4 wild type (-KTS), sequence (P19544 other isoform, or with tags, fused parts or gaps): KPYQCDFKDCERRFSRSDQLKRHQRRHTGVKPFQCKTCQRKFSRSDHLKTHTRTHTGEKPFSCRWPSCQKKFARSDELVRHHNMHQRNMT
WT1 ZF2-4 p.Gln447Pro, sequence (P19544 other isoform, or with tags, fused parts or gaps Q357P | p.Q447P p.Q447P): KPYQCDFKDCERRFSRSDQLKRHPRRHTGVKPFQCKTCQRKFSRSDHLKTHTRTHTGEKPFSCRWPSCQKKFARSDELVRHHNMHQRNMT
WT1 ZF2-4 p.Cys433Tyr, sequence (P19544 other isoform, or with tags, fused parts or gaps C343Y | p.C433Y p.C433Y): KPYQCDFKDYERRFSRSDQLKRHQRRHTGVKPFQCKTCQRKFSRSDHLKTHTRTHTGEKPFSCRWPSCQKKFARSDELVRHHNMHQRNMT
WT1 ZF2-4 p.His474Arg, sequence (P19544 other isoform, or with tags, fused parts or gaps H384R | p.H474R p.H474R): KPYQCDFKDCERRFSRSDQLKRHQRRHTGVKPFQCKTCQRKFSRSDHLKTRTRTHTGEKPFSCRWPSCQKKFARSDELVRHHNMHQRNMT
WT1 ZF2-4 p.Arg439Pro, sequence (P19544 other isoform, or with tags, fused parts or gaps R349P | p.R439P p.R439P): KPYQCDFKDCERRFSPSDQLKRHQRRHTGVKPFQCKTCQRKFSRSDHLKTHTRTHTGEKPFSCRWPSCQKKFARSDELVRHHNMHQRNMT

GTGGAGGCGGCGGGGGCGGCAGCAACAG (ssDNA) [EGR1 DNA motif, Cy5 oligo] gave a Kd (WT1 ZF2-4 p.Cys433Tyr) of 89.4 ± 7 µM, a Kd (WT1 ZF2-4 p.Gln447Pro) of 24.9 ± 4.2 µM and a Kd (WT1 ZF2-4 p.Asp469Asn) of 12.1 ± 1.7 µM. The Kd (WT1 ZF2-4 p.His474Arg) was 48.4 ± 6 µM, the Kd (WT1 ZF2-4 p.Arg439Pro) was 319 ± 72.7 µM and the Kd (WT1 ZF2-4 p.Arg467Trp) was 94.6 ± 9.8 µM. The Kd (WT1 ZF2-4 p.Arg463Ter) was 324 ± 13.3 µM, the Kd [1] was 111 ± 7.4 µM and the Kd (WT1 ZF2-4 p.His450Arg) was 878 ± 164 µM.

Source: paper PMC9130146, “Alteration in DNA-binding affinity of Wilms tumor 1 protein due to WT1 genetic variants associated with steroid - resistant nephrotic syndrome in children”
